Results: paper PMC3679265 (Biochimica et biophysica acta, 2013)

Tests used:
[1] = target: the molecule itself; assay: cross-linking
[2] = target: the molecule itself; assay: SEC

Row | Protein | stoichiometry N [1] | stoichiometry N [2]
1 | human galactose-1-phosphate uridylyltransferase p.F171S (enzyme, UniProt P07902 1-379, looked up) MSRSGTDPQQRQQASEADAAAATFRANDHQHIRYNPLQDEWVLVSAHRMKRPWQGQVEPQLLKTVPRHDPLNPLCPGAIRANGEVNPQYDSTFLFDNDFPALQPDAPSPGPSDHPLFQAKSARGVCKVMCFHPWSDVTLPLMSVPEIRAVVDAWASVTEELGAQYPWVQISENKGAMMGCSNPHPHCQVWASSFLPDIAQREERSQQAYKSQHGEPLLMEYSRQELLRKERLVLTSEHWLVLVPFWATWPYQTLLLPRRHVRRLPELTPAERDDLASIMKKLLTKYDNLFETSFPYSMGWHGAPTGSEAGANWNHWQLHAHYYPPLLRSATVRKFMVGYEMLAQAQRDLTPEQAAERLRALPEVHYHLGQKDRETATIA | 2 | 
2 | human galactose-1-phosphate uridylyltransferase p.D28Y (enzyme, UniProt P07902 1-379, looked up) MSRSGTDPQQRQQASEADAAAATFRANYHQHIRYNPLQDEWVLVSAHRMKRPWQGQVEPQLLKTVPRHDPLNPLCPGAIRANGEVNPQYDSTFLFDNDFPALQPDAPSPGPSDHPLFQAKSARGVCKVMCFHPWSDVTLPLMSVPEIRAVVDAWASVTEELGAQYPWVQIFENKGAMMGCSNPHPHCQVWASSFLPDIAQREERSQQAYKSQHGEPLLMEYSRQELLRKERLVLTSEHWLVLVPFWATWPYQTLLLPRRHVRRLPELTPAERDDLASIMKKLLTKYDNLFETSFPYSMGWHGAPTGSEAGANWNHWQLHAHYYPPLLRSATVRKFMVGYEMLAQAQRDLTPEQAAERLRALPEVHYHLGQKDRETATIA |  | 2
3 | human galactose-1-phosphate uridylyltransferase p.F194L (enzyme, UniProt P07902 1-379, looked up) MSRSGTDPQQRQQASEADAAAATFRANDHQHIRYNPLQDEWVLVSAHRMKRPWQGQVEPQLLKTVPRHDPLNPLCPGAIRANGEVNPQYDSTFLFDNDFPALQPDAPSPGPSDHPLFQAKSARGVCKVMCFHPWSDVTLPLMSVPEIRAVVDAWASVTEELGAQYPWVQIFENKGAMMGCSNPHPHCQVWASSLLPDIAQREERSQQAYKSQHGEPLLMEYSRQELLRKERLVLTSEHWLVLVPFWATWPYQTLLLPRRHVRRLPELTPAERDDLASIMKKLLTKYDNLFETSFPYSMGWHGAPTGSEAGANWNHWQLHAHYYPPLLRSATVRKFMVGYEMLAQAQRDLTPEQAAERLRALPEVHYHLGQKDRETATIA | 2 | 
4 | human galactose-1-phosphate uridylyltransferase p.L74P (enzyme, UniProt P07902 1-379, looked up) MSRSGTDPQQRQQASEADAAAATFRANDHQHIRYNPLQDEWVLVSAHRMKRPWQGQVEPQLLKTVPRHDPLNPPCPGAIRANGEVNPQYDSTFLFDNDFPALQPDAPSPGPSDHPLFQAKSARGVCKVMCFHPWSDVTLPLMSVPEIRAVVDAWASVTEELGAQYPWVQIFENKGAMMGCSNPHPHCQVWASSFLPDIAQREERSQQAYKSQHGEPLLMEYSRQELLRKERLVLTSEHWLVLVPFWATWPYQTLLLPRRHVRRLPELTPAERDDLASIMKKLLTKYDNLFETSFPYSMGWHGAPTGSEAGANWNHWQLHAHYYPPLLRSATVRKFMVGYEMLAQAQRDLTPEQAAERLRALPEVHYHLGQKDRETATIA |  | 2
5 | human galactose-1-phosphate uridylyltransferase p.R333G (enzyme, UniProt P07902 1-379, looked up) MSRSGTDPQQRQQASEADAAAATFRANDHQHIRYNPLQDEWVLVSAHRMKRPWQGQVEPQLLKTVPRHDPLNPLCPGAIRANGEVNPQYDSTFLFDNDFPALQPDAPSPGPSDHPLFQAKSARGVCKVMCFHPWSDVTLPLMSVPEIRAVVDAWASVTEELGAQYPWVQIFENKGAMMGCSNPHPHCQVWASSFLPDIAQREERSQQAYKSQHGEPLLMEYSRQELLRKERLVLTSEHWLVLVPFWATWPYQTLLLPRRHVRRLPELTPAERDDLASIMKKLLTKYDNLFETSFPYSMGWHGAPTGSEAGANWNHWQLHAHYYPPLLRSATVGKFMVGYEMLAQAQRDLTPEQAAERLRALPEVHYHLGQKDRETATIA | 2 | 
